We go through one molecule from patent US20160122421A1.

For this test, the target named is humanized variant of IPN002 (hu-IPN002). As to the kind of experiment: competition ELISA; competitor: biotin-Tau 13-24 on hu-IPN002. In general terms: ELISA stands for enzyme-linked immunosorbent assay.

Ends that are not written are not given here.

Molecule DHAGTYGLGDRK (also: biotinylated, position not given here, also used non-biotinylated) [Peptide 1 (Tau amino acids 13-24)] registered an IC50 (read off the curve) of 400 nM.
